Assay results published in paper PMC9239103, “System-Wide Analysis of the GATC-Binding Nucleoid-Associated Protein Gbn and Its Impact on Streptomyces Development”.

T1: Gbn (SCO1839) (Streptomyces coelicolor A3(2) M145, UniProt Q9RJ29 1-73)
T1 sequence: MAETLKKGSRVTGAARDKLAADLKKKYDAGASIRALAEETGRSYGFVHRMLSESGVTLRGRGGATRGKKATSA


Experiments:
Gbn (SCO1839) [1] = target: T1, Gbn (SCO1839); test: EMSA; half-binding concentration reduced by more than one-third versus N2; 5 nM DNA; EMSA: 10 mM Tris-HCl pH 7.9, 0.1 mM EDTA, 50 mM KCl, 30 C 15 min, 5% PAGE, ethidium bromide; TPM: 10 mM Tris-HCl pH 8.0, 0.1 mM EDTA, 50 mM KCl, 0.5% acetylated BSA; settings: protein: recombinant; tags: His6 (pET28a, pGWS1286; printed as both His6-Gbn and Gbn-His6); blunt
Gbn (SCO1839) [2] = target: T1, Gbn (SCO1839); test: EMSA; three binding events seen for four motifs; 7.5 nM DNA; EMSA: 10 mM Tris-HCl pH 7.9, 0.1 mM EDTA, 50 mM KCl, 30 C 15 min, 5% PAGE, ethidium bromide; TPM: 10 mM Tris-HCl pH 8.0, 0.1 mM EDTA, 50 mM KCl, 0.5% acetylated BSA; settings: protein: recombinant; tags: His6 (pET28a, pGWS1286; printed as both His6-Gbn and Gbn-His6); blunt

Binder	binding result (Gbn (SCO1839) [1])	binding result (Gbn (SCO1839) [2])
p1839_50Single_strong (++, GATCWT) (dsDNA) DNA 1: CTCGACGCCGTCCGGAAGCAGAATGATCCGTTCCGGCTGGAGCGCCTCGA DNA 2: TCGAGGCGCTCCAGCCGGAACGGATCATTCTGCTTCCGGACGGCGTCGAG	binds	
p1839_50Quadruple (dsDNA) DNA 1: GATGGCGGATCACGGATCGGCCGAATGATCCATAACCAGTGGATCATCCA DNA 2: TGGATGATCCACTGGTTATGGATCATTCGGCCGATCCGTGATCCGCCATC		binds
